Data on 1 molecule can be found in patent US20240016923A1.

Experiment [1] has as its target secreted E2 ectodomain (sE2), HCV E2 residues 384-661 (Hepatitis C virus, isolate H77C) (UniProt P27958). As to the kind of experiment: SPR (Biacore T200); sE2 amine-coupled to a CM5 chip, CD81-LEL injected; 1:1 model. On the technique in general: Surface plasmon resonance follows binding to a sensor surface in real time, without labels.
For experiment [2] the target is unchanged. As to the kind of experiment: SPR (Biacore T200); sE2 amine-coupled to a CM5 chip, CD81-LEL injected; 1:1 model, Kd = koff/kon.

B1: CD81 large extracellular loop (CD81-LEL) (receptor, UniProt P60033 113-201, looked up, not shown: small tags and cut ends)
chain: FVNKDQIAKDVKQFYDQALQQAVVDDDANNAKAVVKTFHETLDCCGSSTLTALTTSVLKNNLCPSGSNIISNLFKEDCHQKIDDLFSGK
As a reminder, the koff is a measure of how fast the partners let go of each other. The kon is the rate constant with which the complex forms. The Kd is the free concentration of one partner at which half of the binding sites on the other are occupied at equilibrium, for simple one-to-one binding. High values mean lower affinity, low ones higher affinity. Regarding B1, in experiment [1], the koff came to 0.00045 s⁻¹ and the on-rate (kon) came to 65000 M⁻¹ s⁻¹. Besides, the Kd in experiment [2] came out at 7 nM.
